Columns and labels:
SELP815K 6-mer [1] = system: SELP815K 6-mer
SELP815K 6-mer [2] = target: SELP815K 6-mer; remark: listed apart in the source

MMP-2
SDS-PAGE analysis of enzymatic digestion (SELP815K-MMPRS 6-mer): SELP815K-MMPRS is digested by MMP-2 and MMP-9 | higher protein loss from hydrogel compared to control (2 weeks, 10 nM MMP) (SELP815K-MMPRS 6-mer): 63% and 44% higher protein loss compared to control | increase of nanoparticle release compared to control (SELP815K-MMPRS 6-mer): increases of 65% and 95% compared to control | percentage of total polymer per hydrogel lost (control about 24%) (SELP815K-MMPRS 6-mer): enzymatic digestion increasing this percentage to 39% and 35% for MMP-2 and MMP-9-induced degradation, respectively | total release of 100 nm fluorescent nanoparticles from hydrogel at two weeks (no treatment 8.2%) (SELP815K-MMPRS 6-mer): treatment with MMP-2 and MMP-9 caused release of 13.5% and 16% respectively | SDS-PAGE analysis of enzymatic digestion (SELP815K 6-mer [1]): SELP815K without the responsive sequence is not | Young's modulus of hydrogel (SELP815K 6-mer [1]): there was no significant effect present in the standard SELP-815K polymer | protein loss from hydrogel in the presence of MMPs (SELP815K 6-mer [1]): SELP815K displayed statistically insignificant levels of increased protein loss in the presence of MMPs | total release of 100 nm fluorescent nanoparticles from hydrogel at two weeks (no treatment 9.3%) (SELP815K 6-mer [1]): MMP-2 and MMP-9 treatment conditions yielded release of 12.1% and 9.4%, respectively

MMP-9
SDS-PAGE analysis of enzymatic digestion (SELP815K-MMPRS 6-mer): SELP815K-MMPRS is digested by MMP-2 and MMP-9 | higher protein loss from hydrogel compared to control (2 weeks, 10 nM MMP) (SELP815K-MMPRS 6-mer): 63% and 44% higher protein loss compared to control | increase of nanoparticle release compared to control (SELP815K-MMPRS 6-mer): increases of 65% and 95% compared to control | loss in Young's modulus of hydrogel (SELP815K-MMPRS 6-mer): MMP-9 affected a 24% loss | percentage of total polymer per hydrogel lost (control about 24%) (SELP815K-MMPRS 6-mer): enzymatic digestion increasing this percentage to 39% and 35% for MMP-2 and MMP-9-induced degradation, respectively | total release of 100 nm fluorescent nanoparticles from hydrogel at two weeks (no treatment 8.2%) (SELP815K-MMPRS 6-mer): treatment with MMP-2 and MMP-9 caused release of 13.5% and 16% respectively | SDS-PAGE analysis of enzymatic digestion (SELP815K 6-mer [1]): SELP815K without the responsive sequence is not | Young's modulus of hydrogel (SELP815K 6-mer [1]): there was no significant effect present in the standard SELP-815K polymer | protein loss from hydrogel in the presence of MMPs (SELP815K 6-mer [1]): SELP815K displayed statistically insignificant levels of increased protein loss in the presence of MMPs | total release of 100 nm fluorescent nanoparticles from hydrogel at two weeks (no treatment 9.3%) (SELP815K 6-mer [1]): MMP-2 and MMP-9 treatment conditions yielded release of 12.1% and 9.4%, respectively

B1: Human Leukocyte Elastase (protein)
chain: IVGGRRARPHAWPFMVSLQLRGGHFCGATLIAPNFVMSAAHCVANVNVRAVRVVLGAHNLSRREPTRQVFAVQRIFENGYDPVNLLNDIVILQLNGSATINANVQVAQLPAQGRRLGNGVQCLAMGWGLLGRNRGIASVLQELNVTVVTSLCRRSNVCTLVRGRQAGVCFGDSGSPLVCNGLIHGIASFVRGGCASGLYPDAFAPVAQFVNWIDSIIQ
soluble fraction release from hydrogel (elastase degradation) (SELP415K): SELP415K appears to be the most sensitive to elastase degradation | soluble fraction release from hydrogel (elastase degradation) (SELP815K 6-mer [2]): SELP815K shows the lowest sensitivity to degradation | soluble fraction release from hydrogel (elastase degradation) (SELP47K): SELP815K at 8 wt % is more resistant to degradation than SELP47K and SELP415K at 12 wt %

Reference: US20150152165
